Laboratory results taken from the DeepSol protein solubility set.

Assay: soluble on expression in E. coli; label from the status in PepcDB or PDB records

Sequence | soluble on expression in E. coli
MAHHHHHHMQLQADLTQRTDSVNAIQRNFERLSAMHHAEQLELRRLRLLEKTRSEVAPDGLDAATRQLESVLAEMRHKALEQQTTFVQMEVDLQAANSSCALQQGIARLIASHADGFRDVLQAEAVAHSQLYQSAMSERAIIGSRNEATQQQLLCKDVAQLVADHQAQIVTKLIRGGAAESCRLQKSLAQVSTATVQELVRQGLRETAEAVHQYVASIHAADQERVLAEAEGQRDRERLRLALGELLRLRLRATEEAEATARQALLFGALQACATAQRAAEEVRLLTANADAAAAATRSSWEVTAALLTRRVSDWHDAADMRLVDFHDTIEASMAEKARERDAQSQQKTQELLLEERKRLENLHASQMQTMQVDWRRQRDAVQQSHAMQLEQVRSDLVAQVQVAEDRRVAAERRTGAMEAALIQLKRDHAAEVQAVEAHWRSAVSDAGRHCEQRWRTMLEVYQEGQKAHRGAMLQLFVDFLCTRGQCVYEEQAERAALCRSHWRNQTQHLREEQAAVMQHGVATADLLERMRCHKEDEAASRAVLHASEASDWAALVRKEAAHNAQAHHAVSMAAAAAGLEGLRAEMAGREVRWGQRLDALEADLRRAQQKCLGVVRRASDAVVAAQEAQAALQATQRDFAAYRCGVSAAAQRIEVAESATESACCCSLCLQLYCQPVACVPCGHIYCANCLLRHARNRSLSSVTSSFASAAGASTSENGAVGARAALEVTHWLRGKSTPHAFLFCPECASATVSTVVELPILGELTAKYDYKKRSLAVLLAELR | not soluble
MGSDKIHHHHHHMIQADEVAERRLMNIPISGGQHGLFERLFAELRPKLHRYCARMTGSVFDGEDVLQETLAKAIEALPGAGPIANPEGWLFRIAHNAALDFLRRRAREQAYSDEDLDMIVDPANPTIDRQAASAGLHTFMRLPVTQRSSVIMMDVLGYSLQEISAMLDTSIPAVKAALHRGRDRLRQIANEPHDRPLPRLGAAERQLLNAYIDRFNARDFDAVRDMLAEEVRLELVAKTRLNGREEVGTYFGNYSRAQDWHLVPGFVENRPAILVHDLNDPATRPAYFIVLAWHDGRLAAIGDFRHARYVADSADMHAL | not soluble
QEGDAAKGEKEFNKCKACHMVQAPDGTDIVKGGKTGPNLYGVVGRKIASVEGFKYGDGILEVAEKNPDMVWSEADLIEYVTDPKPWLVEKTGDSAAKTKKTFKLGKNQADVVAFLAQHSPDAGAEAAPAEGAAN | soluble
MGCLATPVRTEVLKALEYSQRICALRSCSRFIRSPRAMFKRQHTDADVLEHPVSASAPATWSLIGEHTDHAGGVVLMSVAQLRTHVEATTRADDIVSVDYYIADPEMPVQQSAISLSDVFEWQNSLSGDHEPLESP | not soluble
MDWSHYRFRSLWALPAPPARVYAALERVEDYPRWWPQVREVTRLDEDCGVIRIRSLLPYDMTFTARDVRHDTAAGILEITMTGDIDGWARWTVTAGGPGTLARYDQEVDVRKPLLRRFAVPGRPVFRANHALMMRAGQRGLLAHLDGLEHHHHHH | not soluble
PRRGAVAHANSIVQQLVSEGADISHTRNMLRNAMNGDAVAFSRVEQNIFRQHFPNMPMHGISRDSELAIELRGALRRAVHQQAAS | soluble
MFVKNVNFYYRQILEKFENSYFAEDLTKVIIGIDCDYLDANELSFSEFKAKYYEALSKNKICDFAGFFGVFSANFVSLFEKIPLSSKKNYDFPLFLFANAKAYLIYEKNSKMFFKFGASKYFEYLKDDIEPMKKKQKNDFEILNSLEDEKNDFLKMCEKAKEYLLSGDIFQVVLSKQLCIKHQVNAFDYYESLSALNPSAYMFYFPSKYGVVLGSSPEFLLKIKKREIYLAPIAGTRNLENNCDLLALEKDLLSDEKELSEHKMLVDLARNDASKFGTQTRVENLFSIIKNKFVMHIVSEVYANMKEDASIFDVIEAVFPAGTLSGAPKIRALEITSELEDCDRGIYGGAVGFLNFNEDITLAILIRCAFFTQDKAYLASGAGIVLQSESQKEYAEICAKRKALLVAFENLKKENQ | not soluble
AAPFDVTAPQEPVLALVGSDAELTCGFSPNASSEYMELLWFRQTRSTAVLLYRDGQEQEGQQMTEYRGRATLATAGLLDGRATLLIRDVRVSDQGEYRCLFKDNDDFEEAAVYLKVAAVGSDPQISMTVQENGEMELECTSSGWYPEPQVQWRTGNREMLPSTSESKKHNEEGLFTVAVSMMIRDSSIKNMSCCIQNILLGQGKEVEISLPAPFVPRLTPW | not soluble
MNMAERAEATKSWSCEPLSGKTLEEIVQNAENAADLVAYIRKPEVDLDFRLKFIAEHEEFFNEQLSDRNSRIRTCHNLSDKGIRGDTVFVFVPGLAGNLEQFEPLLELVDSDQKAFLTLDLPGFGHSSEWSDYPMLKVVELIFVLVCDVLRKWSTAVPNNDNVNPFNGHKIVLVGHSMGCFLACHLYEQHMADTKAVQTLVLLTPPKAHIEQLSKDKHIIQWALYGVFKLPWLFDVYRNKFDQVKGLQSSGIKQYFYQQGDDVKLKYRKFWQFKNNISNKSRTIIGYLLGWETVDWVKFNGVLTQTDMKQKIIIFGAEKDPIAPIENLEFYKQTINKECLRKVIILPDCSHNLCFDRPELVCENFQREVIDNSKL | soluble
MGSDKIHHHHHHMGGIGLRRLGCGEAIQIGGDTRAGPVVQIESADHVQSGGDGKGLDTPSIGPDPKRVAVIGHHHVEGAIGVPVQIGKGLSGVHGIGMIQGFEYQFAARPLARRRAQRSDAVENGRHDAGIVDTQPGPPRQLVQPGHHFGAVVPPTARTIPGPGVHLVAIGGDDQRPLVARAAKQNKSAHSQKSVSSGLSARYNTTCVHRFHPVGAKHRKGYGTRLIMTAFDDREKAFEAKYRLDQEQEFKARIRRDKLLGLWAAEQMGISGDAAKTYALSVVDVEFDATDRDAGHKIVRDFIASGITLDEAAIRHQMAVLLEIAREQIVTEMGRP | not soluble
MPMVRVATNLPDKDVPANFEERLTDLLAESMNKPRNRIAIEVLAGQRITHGASRNPVAVIKVESIGALSADDNIRHTQKITQFCQDTLKLPKDKVIITYFDLQPIHVGFNGTTVAAATM | soluble
MGSDKIHHHHHHMWSFKSMFNTPEDPEKDAYEFYGKVQPGITTPTQKTCNFVALDLKSKDRDAIKAMFKKWTVMADRMMDGDTVGKTSNNPLMPPVDTGESIGLGASKLTITFGISKSLMKKIGLSSKIPDAFKDLPHFPNDQLIDDYSDGDIMIQACSNDSQVSFHAVHNLVRPFRDIVKVRWAQSGFISAKGKETPRNLMAFKDGTINPRKSNQLKDYVFIDDGWAKHGTYCVVRRIQIHIETWDRTALEEQEATFGRKRHSGAPLTGGKEFDEIDLKAKDSHGEYIIDKDAHTRLAKEANTSILRRAFNYVDGTDDRTGNFETGLLFIAFQKATKQFIDIQNNLGSNDKLNEYITHRGSASFLVLPGVSKGGYLGETLFD | not soluble
MENMIVIMAGGRSSRMGAEKPILKVNGKPMILRVYEESTKVGETLVAISKNTPKTRELCIKEGIPLIETPGEGYVEDVRYLLKELGSFVSVSADLPFVKACDIAEVKKAFDGKTSLTGVLPLSKVPTDLRPVVYKGYVIVGLNGVGFEGEKFYELSNPLLALNVNTPEELKLANRIAKLIGLEHHHHHH | not soluble
MFENITAAPADPILGLADLFRADERPGKINLGIGVYKDETGKTPVLTSVKKAEQYLLENETTKNYLGIDGIPEFGRCTQELLFGKGSALINDKRARTAQTPGGTGALRVAADFLAKNTSVKRVWVSNPSWPNHKSVFNSAGLEVREYAYYDAENHTLDFDALINSLNEAQAGDVVLFHGCCHAPTGIDPTLEQWQTLAQLSVEKGWLPLFDFAYQGFARGLEEDAEGLRAFAAMHKELIVASSYSKNFGLYNERVGACTLVAADSETVDRAFSQMKAAILANYSNPPAHGASVVATILSNDALRAIWEQELTDMRQRIQRMRQLFVNTLQEKGANRDFSFIIKQNGMFSFSGLTKEQVLRLREEFGVYAVASGLVNVAGMTPDNMAPLCEAIVAVL | soluble
TMLSFVTTDANIDHGHLQGALSAITNETFNRITVDGDTSTNDMVVVMASGLAENETLTPEHPDWANFYKALQLACEDLAKQIARDGEGATKLIEVEVTGAANDQEAGMVAKQIVGSDLVKTAIYGADANWGRIICAIGYSGCEVNQETIDIAIGPIVTLKQSEPTGFSEEEATAYLKEADPVKISVNLHIGNGTGKAWGCDLTYDYVRINAGYRT | soluble
MGHHHHHHSHMPSLNLFPSVSDSGFWTGGTALRNPPSRPPYLSIAMTTLVSLATDLKYGSTLLGRIKTVLDASVAQLTVADVTTEDIVNFLNSLNGIDHELFSFIRTYPVFFVLHLCTLDRTQTYTSGQVIKTIKHLITTFREVLCEDMGADNDSIISNSNILKDCSWYLTKLETEQMSTSIPHLPKSCITFPCMEQVHHLVHNATLATLPNSWTSPLPSLNSVYVQWFVLSYKHKVFPDEVPSSNIQDLADKMTNIYKHLFVPHTSQLTGASIILARSLDILSQFTPLEKIPSNSPAVAFGDDELSNIPSNCHLMFGHLIESIYMGMTYACTLGAVEQFIREAFDVVLGVASEIKRTASLSDLPTVTKLVNIKRILIEHGLSETRCEEYAQALPKWQHREGIYPFEETLDHFHQKLSTLIKFCLEFYNTLMLVSPTSISHSYLKENNYLLQLDRKSAASQGQGPDDINLLEKVFTFVYPQVPGQDLQRIHDAIDSDIMRTLFFSWVNRNWGIVLITQNPLMEPSCEHQVSEERVAAYCKRMPVGDLSYEPAMVSHKMFYKYFIRHIVGPTIQGIFSRKTSRNRALFQIRWLLSFAITDTPQLQEIRRPLGMFYFELLDIINGTNKPSAMKNLLDHALDLKKKINKINQTFSIPQDLILYLFVLDTGASYINSVDYITAIIPKVEHLLLRGRNILRLGSILCHTKYNYHPLTHQFTILSSSGQILEVHLETLKSLISQVEKDHSQLLMEITDLEGELRGEYSTVLSLLQDLEAYKQHELGIEFDTEPWNQLKQSFSGILSRISSGLSLLSKGCSSCLRKRFHDLFSQEIITPTILKAASAGNVEIIKNLKEIPVNLMAPPTDTSMTQAGGNPTDEDLTMLYSTYPQIFSQNAARGEKHPPQLKKYSSTYDRIPLDVNWQIFTQQTYTAEHAECPYTIVKIHDIIKLLS | not soluble
MTQRPWSKLQREIYDLLTPTINLQIHCTRYPMRSQNGGSTDLPRYWITLDKNVIWDYPKDFIAGNAGVRNFHGETCWYPYLTDICSISDLLREYIDTPKAELLTKQFTSDKWGLVNILRAADRRIGMRRLDQLRRKTHNIAALKIIARRSE | not soluble
MSLKIGFFIMNIGSAGGTERVSINVANALAKQGYDVSFISIGGNKPFFQVDEKINIYAMNKLPYSLKKDYFSITKKLRELVKELQLDTLIVVDGAIMLFSALALVNLNIKHILWEHYSFNFTGNRLVRTLGKYLAVTTCDKIVTLTEAEKTLWQEKFKTNNIISIANPNTLLPKNKLAKLENKTILSVGHLFSYKGFDYLLKVWQVLAKKYPDWNLKIVGSGEEEENLKNLAKALDIEDSVNFIPRTNDVSFYYESSSIYCLPSQTEGLPLVVIEAMAFGLPIVAFNCSPGVKQLVEHKENGFLCEQNNIEEMVKGLDLLINNPELYLQMSDKSRLMSEDYGIEKIIEEWKGILEGHHHHHH | soluble
MMSILRSQCQISLDVTLSVPNVSEGIVRLLDPQTNTEIANYPIYKILFCVRGHDGTPESDCFAFTESHYNAELFRIHVFRCEIQEAVSRILYSFATAFRRSAKQTPLSATAAPQTPDSDIFTFSVSLEIKEDDGKGYFSAVPKDKDRQCFKLRQGIDKKIVIYVQQTTNKELAIERCFGLLLSPGKDVRIVTALIRFGSMGKVQMESRMLFGELESKIPTFSSCNEEPPKDKVLFMTTAVDLVITEVQEPVRFLLETKVRVCSPNERLFWPFSKRSTTENFFLKLKQIKQRERKNNTDTLYEVVCLESLEHHHHHHLEHHHHHHLEHHHHHHLEHHHHHHLEHHHHHHLEHHHHHHLEHHHHHH | not soluble
MANLKSLPVGDKAPEVVHMVIEVPRGSGNKYEYDPDLGAIKLDRVLPGAQFYPGDYGFIPSTLAEDGDPLDGLVLSTYPLLPGVVVEVRVVGLLLMEDEKGGDAKVIGVVAEDQRLDHIQDIGDVPEGVKQEIQHFFETYKALEAKKGKWVKVTGWRDRKAALEEVRACIARYKG | soluble
